# Experimental data taken from paper PMC9593060.
# Target: T1, YycF (Staphylococcus aureus (ATCC29213?)) (UniProt Q9RDT5)
# T1 sequence: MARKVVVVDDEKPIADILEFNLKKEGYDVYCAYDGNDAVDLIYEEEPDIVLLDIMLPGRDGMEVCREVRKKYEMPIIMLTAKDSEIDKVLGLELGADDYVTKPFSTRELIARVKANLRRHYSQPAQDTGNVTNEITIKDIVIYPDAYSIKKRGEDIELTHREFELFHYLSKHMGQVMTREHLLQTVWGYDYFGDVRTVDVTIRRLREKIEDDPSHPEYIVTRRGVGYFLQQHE
# Experiment: EMSA
# Settings: binding buffer not stated
sequence,measurement,value
TGTGAAATATCAATTTGATTGAAAATTAGACAAAAATAAAGAAATGACTTCAACATAATCATCAAAGTCATTTCGTTGAGTTGACTACTGCCAAGATAACATCGTCACGACTAGGACATTGAATTATGTCCCAGACTCATCGACT (double strand) [PcodY (codY promoter region)],binding,binds
